The values below are quoted from earlier work in paper PMC3274258.

One series concerns Asp72. Put plainly: pH titration; the review does not name the technique, and UV-vis absorption of the retinal chromophore is inferred. Conditions: dark state.
The target of series [1] is HtrII (Natronomonas pharaonis) (UniProt P42259).
The target is the same in series [2]. The source holds these as a separate data set.
The target is the same in series [3]. This is another data set of the same source.
In series [4] the target is Halobacterial transducer of SRII, truncated (NpHtrII, pHtrII) (UniProt P42259). Description: not stated in the review (pKa determination of ref 50). Conditions: pH.
The target in a further series is Asp193 (UniProt position 193, LTPTVDVALIV). To be noted: dark (ground) state.
The target of series [5] is Salinibacter transducer of SRI (SrHtrI). Put plainly: pH titration experiments (ref 123; detection not specified in the review).
Series [6] deals with Halobacterial transducer of SRI (HsHtrI). Put plainly: not stated in the review (pKa determination quoted from ref 124). To be noted: pH.
The target of the next series is Asp76 (UniProt position 76, GLRYIDWLVTT).

Values joined by “and” are separate entries in the source; they are usually repeats but may differ in a detail not shown here. Equal entries are not always repeated. Where two headings read alike, the source gives them in different places.

HtrII (Natronomonas pharaonis), sequence (P42259 whole entry): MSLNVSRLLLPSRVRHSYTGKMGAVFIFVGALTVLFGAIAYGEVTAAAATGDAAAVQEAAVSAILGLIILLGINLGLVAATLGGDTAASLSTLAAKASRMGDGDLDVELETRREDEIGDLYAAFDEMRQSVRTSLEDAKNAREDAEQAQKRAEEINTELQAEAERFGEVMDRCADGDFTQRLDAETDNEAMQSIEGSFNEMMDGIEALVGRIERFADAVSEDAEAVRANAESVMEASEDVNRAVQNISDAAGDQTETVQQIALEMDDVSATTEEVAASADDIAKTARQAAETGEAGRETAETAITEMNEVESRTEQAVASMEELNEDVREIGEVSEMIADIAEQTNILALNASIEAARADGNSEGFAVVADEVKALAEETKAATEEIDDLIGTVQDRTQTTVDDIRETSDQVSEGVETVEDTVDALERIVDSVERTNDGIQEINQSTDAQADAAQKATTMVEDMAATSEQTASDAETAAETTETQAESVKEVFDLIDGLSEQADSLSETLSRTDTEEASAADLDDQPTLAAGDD
SRII, sequence (P42196 whole entry): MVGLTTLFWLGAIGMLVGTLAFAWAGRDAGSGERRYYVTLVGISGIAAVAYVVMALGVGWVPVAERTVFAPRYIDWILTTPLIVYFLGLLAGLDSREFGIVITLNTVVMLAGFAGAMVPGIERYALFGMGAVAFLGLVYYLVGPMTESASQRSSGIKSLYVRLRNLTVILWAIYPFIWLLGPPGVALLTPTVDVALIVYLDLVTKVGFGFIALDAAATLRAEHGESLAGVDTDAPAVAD
Halobacterial transducer of SRII, truncated (NpHtrII, pHtrII), sequence (P42259 whole entry, the tested form may be a part): as the sequence (P42259 whole entry) above

Broadly, the pKa is the negative logarithm of the acid dissociation constant. “Salinibacter sensory rhodopsin I (SrSRI) (Salinibacter ruber)”: the pKa in the series with Asp72 (SrSRI without SrHtrI) is recorded as 4.3.

As usually defined, the Kd is the free concentration of one partner at which half of the binding sites on the other are occupied at equilibrium, for simple one-to-one binding. As for SRII (from UniProt P42196), the results for the Kd in [1], in [2] and in [3] were 160 nM, 15 µM and 5 µM, respectively.

“Sensory rhodopsin II (NpSRII, pharaonis phoborhodopsin, ppR)”: the pKa, Asp193 of NpSRII in [4] was 6.4 pH units and 5.6 pH units.

As for “Sensory rhodopsin II (NpSRII; pharaonis phoborhodopsin, ppR) (Natronomonas pharaonis)”, the values for the pKa with Asp193 (NpSRII bound to truncated NpHtrII (1-114 or 1-159)) and in the series with Asp193 (NpSRII transducer-free) were 5.6 and 6.4, respectively.

In the case of “SrSRI-SrHtrI fusion (Salinibacter sensory rhodopsin I fused to its full-length transducer) (Salinibacter ruber)”, in the series on Asp72 (SrSRI associated with SrHtrI (fusion construct)), the pKa was 4.9.

As to “Salinibacter sensory rhodopsin I (SrSRI)”, the pKa, Asp72 of SrSRI (Schiff-base counterion) in [5] is 4.3 pH units and 4.9 pH units.

Regarding Sensory rhodopsin I (HsSRI), the pKa, Asp76 of HsSRI (Schiff-base counterion) in [6] was 7.2 pH units and 8.5 pH units.

On to “Sensory rhodopsin I (HsSRI) (Halobacterium salinarum)”, for which the pKa with Asp76 (HsSRI associated with HsHtrI) was 8.5; with Asp76 (HsSRI without HsHtrI), 7.2.
